Reference: article doi:10.1101/2025.11.06.687086 (2025)

Target: A/Texas/37/2024 (H5N1) HA (influenza A virus A/Texas/37/2024 (H5N1))
Assay: BLI

| Binder | Kd |
| --- | --- |
| HB31 VH R55G germline revertant Fab (Fab, V domains shown) VH: EVQLLESGGGLVQPGGSLRLSCTVSGFTSSNYDMSWVRQAPGKGLEWVSGISGTGGDTYYADSVKGRFTISRDNSKNTLSLQMNSLRADDTAVYFCARDRPVLRYFDWQPYGLDVWGKGTTVTVSS VL: QSALTQPPSASGSPGQSVTISCTGTSSDVGGYNYVSWYQQYPSKAPKLMIYEVSKRPSGVPDRFSGSKSGNTASLTVSGLQAEDEADYYCNSYAGSNLYVFGTGTKVTVL | 10.5 nM |
| HB31 Fab (Fab, V domains shown) VH: EVQLLESGGGLVQPGGSLRLSCTVSGFTSSNYDMSWVRQAPGKGLEWVSGISGTGRDTYYADSVKGRFTISRDNSKNTLSLQMNSLRADDTAVYFCARDRPVLRYFDWQPYGLDVWGKGTTVTVSS VL: QSALTQPPSASGSPGQSVTISCTGTSSDVGGYNYVSWYQQYPSKAPKLMIYEVSKRPSGVPDRFSGSKSGNTASLTVSGLQAEDEADYYCNSYAGSNLYVFGTGTKVTVL | 4.5 nM |
